Test results taken from patent US20230414780A1 (VECT HORUS, published 2023).
Substitutions are numbered along the chain they refer to.

B1: B8^V16 (VHH)
VHH: EVQLVESGGGVVQPGGSLRLSCAASGEIFSINFMRWYRQAPGKQREQVAGFTRDGSTNYPDSAKGRFTISRDNAKNTVYLQIDSLKPEDTAVYYCYMLDTWGQGTQVTVSS
B2: B8^V29 (VHH)
VHH: B1 VHH with Q47W, L98A
B3: B8^V32 (VHH)
VHH: B1 VHH with F29R, Q47W
B4: B8^V33 (VHH)
VHH: B1 VHH with Q47W, D99K
B5: B8^V34 (VHH)
VHH: B1 VHH with F29R, Q47W, S62I
B6: B8^V31 (VHH)
VHH: B1 VHH with F29K, Q47W
B7: B8^V35 (VHH)
VHH: B1 VHH with F29R, Q47W, T57L, Q103K
B8: B8^V39 (VHH)
VHH: B1 VHH with S30K, Q47W
B9: B8^V27 (VHH)
VHH: B1 VHH with Q47W, N58V
B10: B8^V38 (VHH)
VHH: B1 VHH with F29R, Q47W, D54T
B11: B8^V40 (VHH)
VHH: B1 VHH with F29K, Q47W, A49S
B12: B8^V37 (VHH)
VHH: B1 VHH with Q47W, R71E, D99R
B13: B8^V24 (VHH)
VHH: B1 VHH with R35E, Q47W
B14: E2 (VHH)
VHH: QVQLVQSGGGLVQAGGSLRLSCAASGSIFSDITLAWHRQIPGKEREWVAGISRSGSPSYRDSVKGRFTISRDNAKNTVFLQMNSLEPEDTGVYYCYSRGYWGQGTQVTVSS
B15: VHH C (B6) (VHH)
VHH: EVQLVESGGGLVQPGGSLRLSCTASGGPIEQYPMGWFRRAPGKERELVASISRSGDGTYYAISSVKGRFTISRDNAENTVFLQMNSLKPDDTAVYYCGAGINPTKIWGQGTQVTVSS
B16: B6^V3 (VHH)
VHH: B15 VHH with I51S
B17: B6^V2 (VHH)
VHH: B15 VHH with I51F
B18: B6^V4 (VHH)
VHH: B15 VHH with L47S
B19: B6^V1 (VHH)
VHH: B15 VHH with E46N
B20: H7 (VHH)
VHH: EVQLVESGGGLVQAGGSLRLSCTASGRPISDYPMGWFRRAPGKDRELVASISRTGDGTYYANSMKERFTISRDNAQNTVSLQISSLKPEDTAVYYCGAGINPTRYWGQGTQVTVSS
B21: C5^neg (control) (VHH)
VHH: EVQLVESGGGVVQPGGSLKLSCVASGTDFSINFIRWYRQAPGKQREFVAGFTATGNTNYADSMKGRFTISRDNTKNAVYLQIDSLKPEDTAVYYCAMADKWGQGTQVTVSS
notes: negative control of C5 with 2 alanines in CDR3

What follows are binders tested against T1, rhesus monkey transferrin receptor (rhTfR) fused to EGFP, on CHO cells (rhesus monkey) (assay: apparent Kd, flow cytometry, CHO cells).
T1 construct: whole, on cells; also called rhesus monkey TfR
Procedure: (§1) The binding properties of VHHs with affinity for the TfR from different species (i.e., human (h), mouse (m) and rhesus monkey (rh)) were tested using flow cytometry, and apparent affinities (Kd app) were determined. All experiments were performed in 96 well plates using 2×10⁵ cells/well, at 4° C. with shaking. CHO cell lines expressing the hTfR, mTfR or rhTfR fused to EGFP were saturated with PBS/BSA 2% solution during 30 min to avoid nonspecific binding, followed by incubation with purified VHHs at increasing concentrations for 1 hr. After one wash in PBS/BSA 2%, cells were incubated for 1 hr with an anti-6His tag antibody (mouse), washed twice with PBS/BSA 2%, and incubated for 1 hr with an Alexa647-conjugated anti-mouse secondary antibody. After two last washes in PBS/BSA 2%, cells were fixed by incubation for 15 min with PBS/PFA 2%, washed once with PBS and finally resuspended in PBS. Fluorescence levels were assessed using an Attune NxT flow cytometer (Thermo Fisher Scientific). Experimental data were fitted with GraphPad Prism® software using a nonlinear fit to determine the apparent Kd constants. […] Table 5 hereafter summarizes apparent Kd obtained for the tested VHHs.

Row | Kd | Binder
1 | 307 nM | B1
2 | 72 nM | B2
3 | 14 nM | B3
4 | 170 nM | B4
5 | 68 nM | B5
6 | 20 nM | B6
7 | 23 nM | B7
8 | 200 nM | B8
9 | 16 nM | B9
10 | 123 nM | B10
11 | 69 nM | B11
12 | 334 nM | B12

The binders below were run against T2, mouse transferrin receptor (mTfR) fused to EGFP, on CHO cells (mouse, UniProt Q62351 1-763) (assay: apparent Kd, flow cytometry, CHO cells).
T2 construct: whole, on cells; also called mouse TfR; CHO-mTfR-EGFP; not shown: EGFP
Procedure: as §1

T2 sequence (Q62351 whole entry, the tested form may be a part): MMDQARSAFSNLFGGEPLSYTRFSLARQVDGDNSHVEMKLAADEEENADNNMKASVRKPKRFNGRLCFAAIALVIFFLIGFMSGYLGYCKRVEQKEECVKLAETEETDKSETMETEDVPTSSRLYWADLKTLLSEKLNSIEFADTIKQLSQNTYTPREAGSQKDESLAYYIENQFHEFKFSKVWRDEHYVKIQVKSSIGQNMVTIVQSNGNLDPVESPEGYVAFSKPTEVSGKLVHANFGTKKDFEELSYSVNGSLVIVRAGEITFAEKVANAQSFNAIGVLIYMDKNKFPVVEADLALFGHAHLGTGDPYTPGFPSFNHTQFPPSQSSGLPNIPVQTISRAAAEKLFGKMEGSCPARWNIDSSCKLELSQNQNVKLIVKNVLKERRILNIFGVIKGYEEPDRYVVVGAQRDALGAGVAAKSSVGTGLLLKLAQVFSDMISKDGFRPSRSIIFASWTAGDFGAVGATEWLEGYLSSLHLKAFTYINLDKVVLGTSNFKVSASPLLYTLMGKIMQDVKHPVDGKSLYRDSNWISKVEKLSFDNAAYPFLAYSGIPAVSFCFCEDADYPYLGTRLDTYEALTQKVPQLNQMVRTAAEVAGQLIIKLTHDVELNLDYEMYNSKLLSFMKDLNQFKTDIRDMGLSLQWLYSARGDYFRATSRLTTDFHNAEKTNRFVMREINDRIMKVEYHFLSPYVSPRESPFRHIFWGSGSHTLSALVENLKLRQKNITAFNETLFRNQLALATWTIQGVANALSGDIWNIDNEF

Row | Kd | Binder
13 | 3.6 nM | B1
14 | 1670 nM | B2
15 | 1210 nM | B3
16 | 230 nM | B4
17 | 1070 nM | B5
18 | 1690 nM | B6
19 | 513 nM | B7
20 | 1290 nM | B8
21 | 760 nM | B9
22 | 1780 nM | B10
23 | 1580 nM | B11
24 | 582 nM | B12

These binders were tested against T3, human transferrin receptor (hTfR) fused to EGFP, on CHO cells (human, UniProt P02786 1-760) (assay: apparent Kd, flow cytometry, CHO cells).
T3 construct: whole, on cells; also called human TfR; CHO-hTfR-EGFP; not shown: EGFP from pEGFP-C1 vector, fused to the N-terminal (intracellular) end of hTfR
Procedure: as §1

T3 sequence (P02786 whole entry, the tested form may be a part): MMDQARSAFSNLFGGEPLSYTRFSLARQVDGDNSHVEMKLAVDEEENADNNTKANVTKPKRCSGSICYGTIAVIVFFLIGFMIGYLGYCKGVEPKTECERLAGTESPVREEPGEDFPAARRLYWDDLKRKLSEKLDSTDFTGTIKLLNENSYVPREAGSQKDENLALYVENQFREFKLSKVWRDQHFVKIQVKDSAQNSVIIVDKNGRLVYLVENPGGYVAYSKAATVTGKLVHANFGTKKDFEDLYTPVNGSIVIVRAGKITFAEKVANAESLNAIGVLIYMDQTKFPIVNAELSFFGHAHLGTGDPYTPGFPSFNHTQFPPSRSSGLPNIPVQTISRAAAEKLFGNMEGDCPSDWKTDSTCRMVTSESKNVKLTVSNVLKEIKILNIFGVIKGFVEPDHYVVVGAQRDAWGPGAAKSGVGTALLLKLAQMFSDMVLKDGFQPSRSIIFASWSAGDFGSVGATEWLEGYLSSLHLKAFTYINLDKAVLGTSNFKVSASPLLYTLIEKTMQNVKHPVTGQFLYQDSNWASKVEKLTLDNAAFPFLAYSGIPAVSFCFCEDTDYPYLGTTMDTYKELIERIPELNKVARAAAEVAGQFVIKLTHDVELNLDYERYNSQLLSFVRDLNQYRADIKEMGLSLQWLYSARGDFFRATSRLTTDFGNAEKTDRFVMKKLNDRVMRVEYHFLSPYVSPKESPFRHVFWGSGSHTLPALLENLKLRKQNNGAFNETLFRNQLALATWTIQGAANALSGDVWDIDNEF

Row | Kd | Binder
25 | 6.2 nM | B1
26 | 1010 nM | B13
27 | 9 nM | B2
28 | 7.1 nM | B3
29 | 50 nM | B4
30 | 13 nM | B5
31 | 14 nM | B6
32 | 7.1 nM | B7
33 | 16 nM | B8
34 | 6.8 nM | B9
35 | 23 nM | B10
36 | 42 nM | B11
37 | 97 nM | B12
38 | 2.5 nM | B14
39 | 2.1 nM | B15
40 | 2.6 nM | B16
41 | 643 nM | B17
42 | 5.9 nM | B18
43 | 2.3 nM | B19

Each binder was assayed against T4, rhesus monkey TfR ectodomain fused to a mouse IgG1 Fc fragment (rhesus monkey, UniProt I0FKY7 89-760) (assay: SPR, kinetic).
T4 construct: extracellular domain; not shown: mouse IgG1 Fc fragment
Procedure: (§2) Binding properties of some VHHs were also evaluated using Surface Plasmon Resonance (SPR) experiments. The human, mouse and rhesus monkey TfR (having respectively GeneBank number NM_003234.2, NM_011638, NC_041755.1) ectodomains were fused to the N-terminal end of a mouse IgG1 Fc fragment and the recombinant proteins were produced and purified in-house. Interaction of VHHs with the receptors was tested using a Biacore T200 (GE Healthcare). Receptors were immobilized on an HC 1500M or a CM5 sensor chip (Xantec) either directly or on an anti-mouse IgG previously immobilized. VHHs were injected over flowcell by using the single-cycle kinetic or the multiple-cycle kinetic methods.

Row | Kd | koff | kon | Binder
44 | 135 nM | 0.0438 s⁻¹ | 325000 M⁻¹ s⁻¹ | B1
45 | 202 nM | 0.0942 s⁻¹ | 1.16e+06 M⁻¹ s⁻¹ | B2
46 | 32.7 nM | 0.0418 s⁻¹ | 1.28e+06 M⁻¹ s⁻¹ | B3
47 | 73.4 nM | 0.0509 s⁻¹ | 693000 M⁻¹ s⁻¹ | B4
48 | 51.5 nM | 0.102 s⁻¹ | 1.97e+06 M⁻¹ s⁻¹ | B5
49 | 32.1 nM | 0.0509 s⁻¹ | 1.59e+06 M⁻¹ s⁻¹ | B6
50 | 33.7 nM | 0.0303 s⁻¹ | 898000 M⁻¹ s⁻¹ | B7
51 | 90.5 nM | 0.0327 s⁻¹ | 362000 M⁻¹ s⁻¹ | B8
52 | 53.8 nM | 0.0206 s⁻¹ | 455000 M⁻¹ s⁻¹ | B9
53 | 46.3 nM | 0.0255 s⁻¹ | 549000 M⁻¹ s⁻¹ | B10
54 | 34.8 nM | 0.02 s⁻¹ | 575000 M⁻¹ s⁻¹ | B11
55 | 148 nM | 0.103 s⁻¹ | 700000 M⁻¹ s⁻¹ | B12

Each binder was assayed against T5, human TfR ectodomain fused to a mouse IgG1 Fc fragment (human, UniProt P02786 89-760) (assay: SPR, kinetic).
T5 construct: extracellular domain; ectodomain fused to the N-terminal end of the Fc, made in-house; not shown: mouse IgG1 Fc fragment
Procedure: as §2

T5 sequence (P02786 89-760): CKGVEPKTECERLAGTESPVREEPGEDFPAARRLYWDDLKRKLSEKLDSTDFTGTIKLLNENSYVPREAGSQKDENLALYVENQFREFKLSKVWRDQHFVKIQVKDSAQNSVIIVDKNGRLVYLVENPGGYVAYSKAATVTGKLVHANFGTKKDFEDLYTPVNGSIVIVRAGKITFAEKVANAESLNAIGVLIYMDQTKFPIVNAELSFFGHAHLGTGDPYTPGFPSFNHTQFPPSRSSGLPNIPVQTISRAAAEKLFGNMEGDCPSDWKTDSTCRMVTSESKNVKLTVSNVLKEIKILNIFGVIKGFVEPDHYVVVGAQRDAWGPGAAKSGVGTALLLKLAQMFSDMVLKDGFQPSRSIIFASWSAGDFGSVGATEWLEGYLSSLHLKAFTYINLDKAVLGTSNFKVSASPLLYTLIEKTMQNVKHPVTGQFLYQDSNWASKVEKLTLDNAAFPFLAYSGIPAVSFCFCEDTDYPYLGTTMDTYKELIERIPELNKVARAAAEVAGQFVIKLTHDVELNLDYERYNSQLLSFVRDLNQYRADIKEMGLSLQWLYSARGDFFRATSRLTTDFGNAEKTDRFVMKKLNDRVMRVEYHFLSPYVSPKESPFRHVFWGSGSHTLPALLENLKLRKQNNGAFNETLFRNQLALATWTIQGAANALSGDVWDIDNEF

Row | Kd | koff | kon | Binder
56 | 12.8 nM | 0.0133 s⁻¹ | 1.03e+06 M⁻¹ s⁻¹ | B1
57 | 44 nM | 0.0169 s⁻¹ | 682000 M⁻¹ s⁻¹ | B2
58 | 30.1 nM | 0.0126 s⁻¹ | 420000 M⁻¹ s⁻¹ | B3
59 | 46.2 nM | 0.0328 s⁻¹ | 710000 M⁻¹ s⁻¹ | B4
60 | 33.3 nM | 0.0244 s⁻¹ | 733000 M⁻¹ s⁻¹ | B5
61 | 60.8 nM | 0.0221 s⁻¹ | 364000 M⁻¹ s⁻¹ | B6
62 | 20.6 nM | 0.0143 s⁻¹ | 698000 M⁻¹ s⁻¹ | B7
63 | 39.1 nM | 0.0175 s⁻¹ | 448000 M⁻¹ s⁻¹ | B8
64 | 7.29 nM | 0.00722 s⁻¹ | 1.01e+06 M⁻¹ s⁻¹ | B9
65 | 32.2 nM | 0.0192 s⁻¹ | 596000 M⁻¹ s⁻¹ | B10
66 | 42.1 nM | 0.0283 s⁻¹ | 672000 M⁻¹ s⁻¹ | B11
67 | 70.5 nM | 0.0493 s⁻¹ | 699000 M⁻¹ s⁻¹ | B12
68 | 1.3 nM | 0.00147 s⁻¹ | 1.13e+06 M⁻¹ s⁻¹ | B20
69 | 0.659 nM | 0.00121 s⁻¹ | 1.73e+06 M⁻¹ s⁻¹ | B15

These binders were tested against T4, rhesus monkey TfR ectodomain fused to a … (assay: SPR, at equilibrium).
Procedure: as §2

Row | Kd | Binder
70 | 222 nM | B1
71 | 100 nM | B2
72 | 35.1 nM | B3
73 | 86 nM | B4
74 | 49.4 nM | B5
75 | 35.4 nM | B6
76 | 34.4 nM | B7
77 | 93.3 nM | B8
78 | 36.8 nM | B9
79 | 55.4 nM | B10
80 | 39.8 nM | B11
81 | 175 nM | B12

What follows are binders tested against T5, human TfR ectodomain fused to a mouse … (assay: SPR, at equilibrium).
Procedure: as §2

Row | Kd | Binder
82 | 76.3 nM | B1
83 | 21.8 nM | B2
84 | 36.5 nM | B3
85 | 46.5 nM | B4
86 | 32.4 nM | B5
87 | 63.8 nM | B6
88 | 23.9 nM | B7
89 | 40.3 nM | B8
90 | 3.22 nM | B9
91 | 35.8 nM | B10
92 | 42.5 nM | B11
93 | 75.5 nM | B12

These binders were tested against T2, mouse transferrin receptor (mTfR) fused … (assay: flow cytometry, CHO cells).
Procedure: as §1

Row | binding result | Binder
94 | no binding | B13
95 | no binding | B21
96 | no binding | B14
97 | no binding | B20
98 | no binding | B15
99 | no binding | B16
100 | no binding | B17
101 | no binding | B18
102 | no binding | B19
